# Target: HLA-A*02:01 (Homo sapiens, UniProt P04439, D140Y/D185E/D98H/E176V/E277Q/G131W/G231S/I119V/I121R/I166T/I218V/L300P/L318F/N151K/N90K/P208A/P217A/Q86G/Q94H/R138H/R169H/T345S)
# Test: MHC binding assay (UV-ligand exchange, β2m ELISA)
# Details: peptide exchange yield
# Source text: Candidate peptides for T cell based therapies according to the present invention were further tested for their MHC binding capacity (affinity). The individual peptide-MHC complexes were produced by UV-ligand exchange, where a UV-sensitive peptide is cleaved upon UV-irradiation, and exchanged with the peptide of interest as analyzed. Only peptide candidates that can effectively bind and stabilize the peptide-receptive MHC molecules prevent dissociation of the MHC complexes. To determine the yield of the exchange reaction, an ELISA was performed based on the detection of the light chain (β2m) of stabilized MHC complexes. The assay was performed as generally described in Rodenko et al. (Rodenko et al., 2006).
# 96 well MAXISorp plates (NUNC) were coated over night with 2 ug/ml streptavidin in PBS at room temperature, washed 4× and blocked for 1 h at 37° C. in 2% BSA containing blocking buffer. Refolded HLA-A*02:01/MLA-001 monomers served as standards, covering the range of 15-500 ng/ml. Peptide-MHC monomers of the UV-exchange reaction were diluted 100-fold in blocking buffer. Samples were incubated for 1 h at 37° C., washed four times, incubated with 2 ug/ml HRP conjugated anti-β2 m for 1 h at 37° C., washed again and detected with TMB solution that is stopped with […]. Absorption was measured at 450 nm. Candidate peptides that show a high exchange yield (preferably higher than 50%, most preferred higher than 75%) are generally preferred for a generation and production of antibodies or fragments thereof, and/or T cell receptors or fragments thereof, as they show sufficient avidity to the MHC molecules and prevent dissociation of the MHC complexes.
row,Substance,Peptide exchange (MHC class I binding score)
1,1 (YAAEIASAL; listed as Homo sapiens) [compound 1],+++ (>50 = +++)
2,2 (AAYPEIVAV; listed as Homo sapiens) [compound 2],+++ (>50 = +++)
3,3 (EMDSTVITV; listed as Homo sapiens) [compound 3],+++ (>50 = +++)
4,4 (FLLEAQNYL; listed as Homo sapiens) [compound 4],++++ (>75% = ++++)
5,5 (GLIDEVMVLL; listed as Homo sapiens) [compound 5],++++ (>75% = ++++)
6,6 (LLLPLLPPLSPS; listed as Homo sapiens) [compound 6],++++ (>75% = ++++)
7,7 (LLLSDPDKVTI; listed as Homo sapiens) [compound 7],++++ (>75% = ++++)
8,8 (LSASLVRIL; listed as Homo sapiens) [compound 8],+ (>10% = +)
9,9 (RLAKLTAAV; listed as Homo sapiens) [compound 9],++++ (>75% = ++++)
10,10 (SAFPFPVTVSL; listed as Homo sapiens) [compound 10],++ (>20% = ++)
11,11 (SIIDFTVTM; listed as Homo sapiens) [compound 11],++++ (>75% = ++++)
12,12 (TILPGNLQSW; listed as Homo sapiens) [compound 12],+ (>10% = +)
13,13 (VLPRAFTYV; listed as Homo sapiens) [compound 13],++++ (>75% = ++++)
14,14 (YGIEFVVGV; listed as Homo sapiens) [compound 14],++++ (>75% = ++++)
15,15 (SVIDSLPEI; listed as Homo sapiens) [compound 15],++++ (>75% = ++++)
16,16 (AVMTDLPVI; listed as Homo sapiens) [compound 16],++++ (>75% = ++++)

row,Substance,Peptide exchange (MHC class I binding score)
1,17 (VLYDNTQLQL; listed as Homo sapiens) [compound 17],++++ (>75% = ++++)
2,18 (SLSPDLSQV; listed as Homo sapiens) [compound 18],+++ (>50 = +++)
3,19 (TAYPQVVVV; listed as Homo sapiens) [compound 19],++ (>20% = ++)
4,20 (VLQDELPQL; listed as Homo sapiens) [compound 20],++++ (>75% = ++++)
5,21 (IAFPTSISV; listed as Homo sapiens) [compound 21],+++ (>50 = +++)
6,22 (SAFGFPVIL; listed as Homo sapiens) [compound 22],++ (>20% = ++)
7,23 (SLLSELLGV; listed as Homo sapiens) [compound 23],++++ (>75% = ++++)
8,24 (ISAPLVKTL; listed as Homo sapiens) [compound 24],+ (>10% = +)
9,25 (NLSETASTMAL; listed as Homo sapiens) [compound 25],++++ (>75% = ++++)
10,26 (TAQTLVRIL; listed as Homo sapiens) [compound 26],+ (>10% = +)
11,27 (ALAEQVQKA; listed as Homo sapiens) [compound 27],+++ (>50 = +++)
12,28 (YASGSSASL; listed as Homo sapiens) [compound 28],+ (>10% = +)
13,29 (FASEVSNVL; listed as Homo sapiens) [compound 29],++++ (>75% = ++++)
14,30 (FASGLIHRV; listed as Homo sapiens) [compound 30],+++ (>50 = +++)
15,31 (IAIPFLIKL; listed as Homo sapiens) [compound 31],++++ (>75% = ++++)
16,32 (YVISQVFEI; listed as Homo sapiens) [compound 32],++++ (>75% = ++++)

# System: CD8+ T cells of healthy HLA-A*02 donors
# Test: In vitro T-cell priming immunogenicity assay with aAPCs loaded with peptide/MHC complexes and anti-CD28 antibody, multimer readout
# Assay type: cell-based, human
# Details: HLA class I peptides, Table 10A
# Source text: In order to obtain information regarding the immunogenicity of the TUMAPs of the present invention, the inventors performed investigations using an in vitro T-cell priming assay based on repeated stimulations of CD8+ T cells with artificial antigen presenting cells (aAPCs) loaded with peptide/MHC complexes and anti-CD28 antibody.
# In order to perform in vitro stimulations by artificial antigen presenting cells loaded with peptide-MHC complex (pMHC) and anti-CD28 antibody, the inventors first isolated CD8+ T cells from fresh HLA-A*02 leukapheresis products via positive selection using CD8 microbeads (Miltenyi Biotec, Bergisch-Gladbach, Germany) of healthy donors obtained from the University clinics Mannheim, Germany, after informed consent.
# PBMCs and isolated CD8+ lymphocytes were incubated in T-cell medium (TCM) until use consisting of RPMI-Glutamax (Invitrogen, Karlsruhe, Germany) supplemented with 10% heat inactivated human AB serum (PAN-Biotech, Aidenbach, Germany), 100 U/ml Penicillin/100 μg/ml Streptomycin (Cambrex, Cologne, Germany), 1 mM sodium pyruvate (CC Pro, Oberdorla, Germany), 20 μg/ml Gentamycin (Cambrex). 2.5 ng/ml IL-7 (PromoCell, Heidelberg, Germany) and 10 U/ml IL-2 (Novartis Pharma, Nürnberg, Germany) were also added to the TCM at this step.
# Generation of pMHC/anti-CD28 coated beads, T-cell stimulations and readout was performed in a highly defined in vitro system using four different pMHC molecules per stimulation condition and 8 different pMHC molecules per readout condition.
# The purified co-stimulatory mouse IgG2a anti human CD28 Ab 9.3 (Jung et al., 1987) was chemically biotinylated using Sulfo-N-hydroxysuccinimidobiotin as recommended by the manufacturer (Perbio, Bonn, Germany). Beads used were 5.6 μm diameter streptavidin coated polystyrene particles (Bangs Laboratories, Ill., USA).
# 800.000 beads/200 μl were coated in 96-well plates in the presence of 4×12.5 ng different biotin-pMHC, washed and 600 ng biotin anti-CD28 were added subsequently in a volume of 200 μl. Stimulations were initiated in 96-well plates by co-incubating […] CD8+ T cells with 2×10^5 washed coated beads in 200 μl TCM supplemented with 5 ng/ml IL-12 (PromoCell) for 3 days at 37° C. Half of the medium was then exchanged by fresh TCM supplemented with 80 U/ml IL-2 and incubating was continued for 4 days at 37° C. This stimulation cycle was performed for a total of three times. For the pMHC multimer readout using 8 different pMHC molecules per condition, a two-dimensional combinatorial coding approach was used as previously described (Andersen et al., 2012) with minor modifications encompassing coupling to 5 different fluorochromes. Finally, multimeric analyses were performed by staining the cells with Live/dead near IR dye (Invitrogen, Karlsruhe, Germany), CD8-FITC antibody clone SK1 (BD, Heidelberg, Germany) and fluorescent pMHC multimers. For analysis, a BD LSRII SORP cytometer equipped with appropriate lasers and filters was used. Peptide specific cells were calculated as percentage of total CD8+ cells. Evaluation of multimeric analysis was done using the FlowJo software (Tree Star, Oreg., USA). In vitro priming of specific multimer+ CD8+ lymphocytes was detected by comparing to negative control stimulations.
row,Substance,wells (in vitro immunogenicity)
1,33 (ILGTEDLIVEV; listed as Homo sapiens) [compound 33],++ (20%-49% = ++)
2,34 (LLWGNLPEI; listed as Homo sapiens) [compound 34],++ (20%-49% = ++)
3,35 (GLIDEVMVL; listed as Homo sapiens) [compound 35],++ (20%-49% = ++)
4,36 (ILVDWLVQV; listed as Homo sapiens) [compound 36],++ (20%-49% = ++)
5,38 (KIQEILTQV; listed as Homo sapiens) [compound 38],++ (20%-49% = ++)

# Same assay, conditions: HLA-A*02 restricted peptides, percentage of positive wells among evaluable, Table 10B
row,Substance,Wells positive [%]
1,6 (LLLPLLPPLSPS; listed as Homo sapiens) [compound 6],+ (<20% = +)
2,13 (VLPRAFTYV; listed as Homo sapiens) [compound 13],++++ (> = 70% = ++++)
3,16 (AVMTDLPVI; listed as Homo sapiens) [compound 16],+ (<20% = +)
4,25 (NLSETASTMAL; listed as Homo sapiens) [compound 25],++ (20%-49% = ++)
